B1: WT: wild type MG53 as GFP fusion protein expressed in cells (protein)
chain: MSAAPGLLRQELSCPLCLQLFDAPVTAECGHSFCRACLIRVAGEPAADGTVACPCCQAPTRPQALSTNLQLSRLVEGLAQVPQGHCEEHLDPLSIYCEQDRTLVCGVCASLGSHRGHRLLPAAEAQARLKTQLPQQKMQLQEACMRKEKTVAVLEHQLVEVEETVRQFRGAVGEQLGKMRMFLAALESSLDREAERVRGDAGVALRRELSSLNSYLEQLRQMEKVLEEVADKPQTEFLMKFCLVTSRLQKILSESPPPARLDIQLPVISDDFKFQVWKKMFRALMPALEELTFDPSSAHPSLVVSSSGRRVECSDQKAPPAGEDTRQFDKAVAVVAQQLLSQGEHYWEVEVGDKPRWALGVMAADASRRGRLHAVPSQGLWLLGLRDGKILEAHVEAKEPRALRTPERPPARIGLYLSFADGVLAFYDASNPDVLTPIFSFHERLPGPVYPIFDVCWHDKGKNAQPLLLVGPEQEQA
modifications: left off: large carriers
notes: wild type MG53 as GFP fusion protein expressed in cells
B2: recombinant human MG53: recombinant mitsugumin53 protein, muscle-specific TRIM family protein, applied extracellularly (protein)
chain: MSAAPGLLHQELSCPLCLQLFDAPVTAECGHSFCRACLGRVAGEPAADGTVLCPCCQAPTRPQALSTNLQLARLVEGLAQVPQGHCEEHLDPLSIYCEQDRALVCGVCASLGSHRGHRLLPAAEAHARLKTQLPQQKLQLQEACMRKEKSVAVLEHQLVEVEETVRQFRGAVGEQLGKMRVFLAALEGSLDCEAERVRGEAGVALRRELGSLNSYLEQLRQMEKVLEEVADKPQTEFLMKYCLVTSRLQKILAESPPPARLDIQLPIISDDFKFQVWRKMFRALMPALEELTFDPSSAHPSLVVSSSGRRVECSEQKAPPAGEDPRQFDKAVAVVAHQQLSEGEHYWEVDVGDKPRWALGVIAAEAPRRGRLHAVPSQGLWLLGLREGKILEAHVEAKEPRALRSPERRPTRIGLYLSFGDGVLSFYDASDADALVPLFAFHERLPRPVYPFFDVCWHDKGKNAQPLLLVGPEGAEA

Key:
[1] = system: C2C12 cells expressing GFP-MG53; assay: Repair of acute membrane damage: translocation to microelectrode injury site; type: cell-based, murine; conditions: C2C12 cells; acute membrane damage
Description: To follow the process of intracellular vesicle translocation associated with repair of acute membrane damage, GFP-MG53 fusion protein was expressed in C2C12 myoblast cells (FIG. 21a). […]
Cell culture—The C2C12 murine myoblast cell line used for all studies was purchased from the American Type Culture Collection (Manassas, Va.). Cells were grown in a humidified environment at 37° C. and 5% CO2 in DMEM medium for C2C12 or Ham's F12 medium for CHO cells supplemented with 10% fetal bovine serum, 100 units/ml penicillin and 100 ug/ml streptomycin. In order to induce myotube differentiation, C2C12 myoblasts were grown to confluence and the medium was switched to DMEM containing 2% horse serum, penicillin (100 U/ml), streptomycin (100 μg/ml). For transient transfections, C2C12 myoblasts or CHO cells were plated at 70% confluence in glass-bottom dishes. After 24 hours, cells were transfected with plasmids described above using GeneJammer reagent (Stratagene). Cells were visualized by live cell confocal imaging at 24-48 hours after transfection or at times indicated for individual experiments. In some experiments, C2C12 myoblasts were allowed to differentiate into myotubes for the indicated time before observation.
Live cell imaging—To monitor intracellular trafficking of GFP-MG53 either CHO or C2C12 cells were cultured in glass-bottom dishes (Bioptechs Inc.) and transfected with the plasmids described above. Fluorescence images (512×512) were captured at 3.18 s/frame using a BioRad 2100 Radiance laser scanning confocal microscope with a 63×1.3NA oil immersion objective.

mg53−/− myotubes = assay: Membrane repair in transfected mg53−/− myotubes; type: cell-based, mice
Text: The entry of FM4-64, a red-shifted variant of FM1-43, was used as an index of membrane repair capacity in mg53−/− myotubes transfected with GFP-MG53 and GFP-C242A. Following UV-bleaching of the green fluorescence, rapid translocation of GFP-MG53 took place at the injury site, whereas GFP-C242A remained static due to its defective oligomerization properties (FIG. 16E, 17A).
Similar defects with GFP-C29L were also observed in C2C12 myotubes (FIG. 18e, middle).

[2] = system: Human gastric adenocarcinoma (AGS) cells; assay: GFP-MG53 translocation after microelectrode or saponin damage, AGS; type: cell-based; conditions: microelectrode or 0.005% saponin
Text: (§1) MG53 can translocate to membrane repair sites in gastric cells. Human gastric adenocarcinoma (AGS) cells were transfected with GFP-MG53 and then subjected to mechanical membrane damage by microelectrode needle penetration (top) or treatment with 0.005% saponin to permeabilize the membrane (bottom) (FIG. 45). Translocation of GFP-MG53 to the injury site (arrow) was monitored by live cell confocal microscopy.

Mouse primary astrocytes = assay: GFP-MG53 translocation after microelectrode or saponin damage, astrocytes; type: cell-based; conditions: microelectrode or 0.005% saponin
Text: as §1, with “neural” for “gastric”, “Mouse primary astrocytes” for “Human gastric adenocarcinoma (AGS) cells”, “46).” for “45).”

[3] = system: Human C38 airway epithelial cells; assay: GFP-MG53 translocation after microelectrode or saponin damage, C38; type: cell-based; conditions: microelectrode or 0.005% saponin
Text: as §1, with “airway epithelial” for “gastric”, “C38 airway epithelial” for “gastric adenocarcinoma (AGS)”, “47).” for “45).”

[4] = system: Mouse leukaemic monocyte macrophage (RAW 264.7) cells; assay: GFP-MG53 translocation after microelectrode or saponin damage, RAW 264.7; type: cell-based; conditions: microelectrode or 0.005% saponin
Text: as §1, with “immune” for “gastric”, “Mouse leukaemic monocyte macrophage (RAW 264.7)” for “Human gastric adenocarcinoma (AGS)”, “49).” for “45).”

[5] = system: human embryonic palatal mesenchymal (HEPM) dental cells; assay: GFP-MG53 translocation after microelectrode or saponin damage, HEPM; type: cell-based; conditions: microelectrode or saponin detergent
Text: (§2) MG53 can patch the plasma membrane in many different human cell types and prevent cell death. To test if exogenous MG53 can recapitulate membrane resealing function in non-muscle cell types, we used either adenovirus or liposome-based transfection methods to express GFP-MG53 in a number of different cell types. In all cell types tested, MG53 performed in a similar fashion as that seen in muscle cells. Here we illustrate these effects in immortalized human cell lines, including HEK293 (not shown) and human embryonic palatal mesenchymal (HEPM) dental cells (FIG. 43), as well as primary cultures of human keratinocytes (FIG. 42). […] The function of MG53 appears to be essential to allow membrane patching and survival of muscle cells following injury.

[6] = system: primary cultures of human keratinocytes; assay: GFP-MG53 translocation after microelectrode or saponin damage, keratinocytes; type: cell-based; conditions: microelectrode or saponin detergent
Text: as §2

[7] = PIP2-Strip lipid dot blot; type: binding; conditions: 1 μg/ml
HEK293 cells [8] = assay: LDH release after electroporation, HEK293; type: cell-based, human; conditions: 10 ug/mL, extracellular; various field strengths
Description: Genetic overexpression of MG53 can prevent membrane damage. Human embryonic kidney (HEK293) cells were transfected with RFP-MG53 or RFP and then electroporated with fields of varying strength (FIG. 32). The amount of membrane damage was measured by assessing the amount of lactate dehydrogenase (LDH) that leaks into the extracellular media out of holes in the plasma membrane produced by electroporation. The more damage that occurs to the membrane, the higher the reading on the LDH assay will be. […] Thus, expression of exogenous MG53 in non-muscle cells can increase the capacity for cell membrane repair in such non-muscle cells.
(§3) Recombinant MG53 can protect kidney cells from cell membrane damage. (a) HEK293 cells (8×10^4) were treated with 10 ug/mL recombinant human MG53 or vehicle control and then electroporated at various field strengths (FIG. 35). […] (b) MG53 or a vehicle control was added to recombinant LDH to generate standard curves for LDH activity.

HEPM cells [9] = assay: LDH release after electroporation, HEPM; type: cell-based, human; conditions: 10 ug/mL, extracellular; various field strengths
Description: as §3, with “gum lining” for “kidney”, “HEPM” for “HEK293”, “(5×10^4)” for “(8×10^4)”, “36).” for “35).”

HEK293 cells [10] = assay: LDH release after glass microbead damage, HEK293; type: cell-based, human; conditions: glass microbeads
Description: Recombinant MG53 can protect kidney cells from mechanical cell membrane damage. HEK293 cells (8×10^4) were treated with glass microbeads to induce mechanical damage (FIG. 37). Different does of recombinant human MG53 or vehicle control was applied to the samples when glass beads were added to the media. Cells were rotated on an orbital shaker and then the supernatant was analyzed for LDH levels.
(§4) Externally applied recombinant MG53 requires phosphatidylserine (PS) binding to reseal damaged membranes. HEK293 cells were treated with recombinant human MG53 or vehicle and them damaged by shaking in the presence of glass microbeads (black bars) (FIG. 40). Membrane damage is measured by LDH release from cells that is recorded by colormetric assay recorded at 488 nm. […] Thus, MG53 must be able to bind exposed PS on damaged cells in order to facilitate membrane repair. * p<0.05
as §4, with “HEK293” for “Externally applied recombinant MG53 requires phosphatidylserine (PS) binding to reseal damaged membranes. HEK293”, “41).” for “40).”

[11] = system: Hela cervical epithelial cells; assay: Resealing after glass bead damage, Hela; type: cell-based; conditions: glass beads
Text: Effects of MG53 are specific to the function of the protein.

HEPM cells [12] = assay: LDH release after LPS treatment; type: cell-based, human; conditions: LPS 1 mg/mL, 24 hours, co-incubation
Text: Lipopolysaccarides can induce membrane damage in HEPM cells that can be prevented by exposure to MG53.

[13] = system: Human IB3 airway epithelial cells; assay: LDH release after glass bead damage, IB3; type: cell-based; conditions: glass beads; external protein
Description: External MG53 can reseal to membrane damage in airway epithelial cells. Human IB3 airway epithelial cells were treated with external recombinant human MG53 or vehicle control and then exposed to mechanical membrane damage by glass beads (FIG. 48).

| Molecule | translocation to injury site and membrane repair function of GFP fusion protein [1] | translocation to the plasma membrane following injury (mg53−/− myotubes; primary cultured mg53−/− myotubes) | entry of FM4-64 (membrane repair capacity) (mg53−/− myotubes; transfected mg53−/− myotubes, UV injury) | translocation after cell membrane damage [2] | translocation after cell membrane damage (Mouse primary astrocytes) | translocation after cell membrane damage [3] | translocation after cell membrane damage [4] | translocation after membrane damage [5] | translocation after membrane damage [6] | lipid binding [7] | membrane damage (LDH) from electroporation (HEK293 cells [8]) | membrane damage (LDH) from electroporation (HEPM cells [9]) | saturating dose (HEK293 cells [10]) [µg/mL] | mechanical membrane damage (LDH levels) (HEK293 cells [10]; different doses) | membrane resealing [11] | membrane resealing ([11]; recombinant protein boiled) | prevention of LPS induced damage (LDH release) (HEPM cells [12]) | cell membrane damage (LDH release) [13] |
| --- | --- | --- | --- | --- | --- | --- | --- | --- | --- | --- | --- | --- | --- | --- | --- | --- | --- | --- |
| B1 | rapid accumulation | could translocate to the plasma membrane following injury | Significantly less entry of FM4-64 | translocation of MG53 to the plasma membrane | translocation of MG53 to the plasma membrane | translocation of MG53 to the plasma membrane | translocation of MG53 to the plasma membrane | effectively translocates to the plasma membrane | effectively translocates to the plasma membrane |  |  |  |  |  |  |  |  |  |
| B2 |  |  |  |  |  |  |  |  |  | specifically binds phosphatidylserine (PS) and not other membrane lipids | can prevent damage from electroporation | can prevent damage from electroporation | ~10 | can prevent mechanical membrane damage | effective at resealing damage | can no longer facilitate membrane resealing | can prevent damage to HEPM cells produced by LPS | could prevent cell membrane damage due to mechanical damage |

From patent US9458465B2, “Compositions and methods to modulate cell membrane resealing” (RUTGERS, THE STATE UNIVERSITY OF NEW JERSEY, priority 2007, dated 2016)
